Experimental data: patent US20220403031A1

B1: BMK9.Fc(IgG4) (Benchmark antibody 9, variable region of KN035 conjugated with human IgG4 constant region) (Fc fusion, INN chains, looked up)
VH: QVQLVESGGGLVQPGGSLRLSCAASGKMSSRRCMAWFRQAPGKERERVAKLLTTSGSTYLADSVKGRFTISRDNSKNTVYLQMNSLRAEDTAVYYCAADSFEDPTCTLVTSSGAFQYWGQGTLVTVSS
modifications: VHH-Fc IgG4
B2: AP3R2-1A3-z12-hIgG4 (Fc fusion, not shown: a dimerising Fc or GST)
chain: EVQLVESGGGLVQPGGSLRLSCAASGHFSNLAVNWFRQAPGKERELVAGILWSGGSTFYADSVKGRFTISRGNAENMLYLQMNSLRAEDTAVYYCNTGTNWGQGTLVTVSS

Assays:
[1] = target: human PD-L1 on CHO-K1 cells (W315-CHO-K1.hPro1.C11) (human) (UniProt Q9NZQ7); assay: FACS affinity on human PD-L1 cells, quantitative beads; set-up: Bmax: unit not given here
Chain of human PD-L1 on CHO-K1 cells (W315-CHO-K1.hPro1.C11) (human) (Q9NZQ7 19-290): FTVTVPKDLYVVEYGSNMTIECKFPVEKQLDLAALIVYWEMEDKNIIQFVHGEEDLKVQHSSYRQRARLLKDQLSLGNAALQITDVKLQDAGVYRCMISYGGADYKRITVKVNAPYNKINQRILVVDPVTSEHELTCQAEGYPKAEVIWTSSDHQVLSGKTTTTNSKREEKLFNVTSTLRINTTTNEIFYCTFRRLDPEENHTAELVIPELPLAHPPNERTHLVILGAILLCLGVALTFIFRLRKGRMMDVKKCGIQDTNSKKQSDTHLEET

[2] = target: 4-1BB.his (Homo sapiens (Human)) (UniProt Q07011); assay: non-specific binding ELISA; antigen coated at 2 ug/mL, antibody at 10 ug/ml
Chain of 4-1BB.his (Homo sapiens (Human)) (Q07011 24-186 limits assumed): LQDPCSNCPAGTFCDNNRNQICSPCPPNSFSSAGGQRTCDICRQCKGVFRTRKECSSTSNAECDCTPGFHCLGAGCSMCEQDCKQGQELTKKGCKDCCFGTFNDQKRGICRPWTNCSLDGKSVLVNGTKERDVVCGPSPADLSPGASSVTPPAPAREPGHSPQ

[3] = target: HER3.his (Homo sapiens (Human)) (UniProt P21860); assay: as above
OX40.his = assay: as above
Chain of OX40.his (P43489 29-214): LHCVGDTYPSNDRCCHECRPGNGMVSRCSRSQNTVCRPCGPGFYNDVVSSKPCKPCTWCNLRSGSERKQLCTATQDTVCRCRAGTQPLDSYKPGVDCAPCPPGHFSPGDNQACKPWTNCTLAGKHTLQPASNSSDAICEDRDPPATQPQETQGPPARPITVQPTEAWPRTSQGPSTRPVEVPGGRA

[4] = target: PD-1.his (Homo sapiens (Human)) (UniProt Q15116); assay: as above
Chain of PD-1.his (Homo sapiens (Human)) (Q15116 25-170 limits assumed): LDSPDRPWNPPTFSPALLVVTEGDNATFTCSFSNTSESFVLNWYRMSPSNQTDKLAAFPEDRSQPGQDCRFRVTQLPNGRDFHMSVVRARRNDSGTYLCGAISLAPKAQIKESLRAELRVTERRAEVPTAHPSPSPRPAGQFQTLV

Binder | Bmax [1] | Kd [1] [pM] | Absorbance at 450 nm [2] | Absorbance at 450 nm [3] | Absorbance at 450 nm (OX40.his) | Absorbance at 450 nm [4]
B1 | 2.8e-10 | 240 | – | – | – | –
B2 | – | – | 0.07 | 0.07 | 0.06 | 0.06
